Measurements from publication PMC9242648, “Hypertrophic cardiomyopathy mutations in the pliant and light chain-binding regions of the lever arm of human β-cardiac myosin have divergent effects on myosin function” (eLife, 2022).

T1: human β-cardiac myosin 2-hep heavy chain, wild type (human | )
T1 chain: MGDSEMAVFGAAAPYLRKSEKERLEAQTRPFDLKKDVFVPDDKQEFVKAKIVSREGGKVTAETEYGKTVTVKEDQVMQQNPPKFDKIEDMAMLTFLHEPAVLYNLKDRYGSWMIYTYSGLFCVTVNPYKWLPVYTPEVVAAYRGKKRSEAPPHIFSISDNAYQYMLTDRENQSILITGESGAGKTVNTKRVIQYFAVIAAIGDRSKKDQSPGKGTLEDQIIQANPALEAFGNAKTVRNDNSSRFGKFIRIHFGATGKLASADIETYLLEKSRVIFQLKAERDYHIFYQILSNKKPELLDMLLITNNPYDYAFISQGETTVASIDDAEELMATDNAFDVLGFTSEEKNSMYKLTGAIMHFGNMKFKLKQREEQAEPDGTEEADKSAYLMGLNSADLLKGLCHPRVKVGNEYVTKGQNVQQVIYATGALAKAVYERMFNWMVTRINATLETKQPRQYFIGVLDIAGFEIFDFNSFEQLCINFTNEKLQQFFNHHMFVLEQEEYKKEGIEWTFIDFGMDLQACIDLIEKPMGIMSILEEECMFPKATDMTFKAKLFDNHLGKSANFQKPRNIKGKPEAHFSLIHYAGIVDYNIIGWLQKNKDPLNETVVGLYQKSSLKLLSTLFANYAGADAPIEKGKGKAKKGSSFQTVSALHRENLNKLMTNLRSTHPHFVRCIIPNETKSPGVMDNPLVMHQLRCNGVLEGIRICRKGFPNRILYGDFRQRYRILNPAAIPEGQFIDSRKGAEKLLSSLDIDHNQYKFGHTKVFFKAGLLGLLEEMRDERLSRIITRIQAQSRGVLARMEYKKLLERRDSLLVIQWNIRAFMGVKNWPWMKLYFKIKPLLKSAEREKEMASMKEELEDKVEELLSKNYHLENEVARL

B1: human essential light chain (MYL3) (natural protein)
chain: not shown
notes: human essential light chain, MYL3; N-terminal FLAG tag followed by a TEV protease site; TEV protease cleaved the ELC-myosin complex off the anti-FLAG resin; also called ELC; not shown: FLAG, N-terminal, cleaved
B2: human regulatory light chain (MYL2) (natural protein, UniProt P10916 1-166, looked up)
chain: MAPKKAKKRAGGANSNVFSMFEQTQIQEFKEAFTIMDQNRDGFIDKNDLRDTFAALGRVNVKNEEIDEMIKEAPGPINFTVFLTMFGEKLKGADPEETILNAFKVFDPEGKGVLKADYVREMLTTQAERFSKEEVDQMFAAFPPDVTGNLDYKNLVHIITHGEEKD
notes: human regulatory light chain, MYL2; N-terminal His-TEV tag added; also called RLC; source: E. coli, purified (as in Nag et al., 2017)

Legend:
[1] = molecular target: T1, human β-cardiac myosin 2-hep heavy …; experiment: light chain loading gel assay (Coomassie SDS-PAGE densitometry of the co-purified complex); ELC co-expressed with the 2-hep heavy chain in C2C12 cells and purified through the FLAG tag of the ELC; buffer exchanged 5x in a 50 or 100 kDa filter to remove unbound light chains; dilution series 10-1 pmol per lane, 700 nm scan, slope of light chain over slope of heavy chain; conditions: partners not purified
[2] = molecular target: T1, human β-cardiac myosin 2-hep heavy …; experiment: light chain loading gel assay (Coomassie SDS-PAGE densitometry of the co-purified complex); human RLC purified from E. coli added to myosin held on anti-FLAG resin after depletion of native mouse RLC (>2.5 hr, 4°C); buffer exchanged 5x in a 50 or 100 kDa filter to remove unbound light chains; dilution series 10-1 pmol per lane, 700 nm scan, slope of light chain over slope of heavy chain; conditions: both partners purified

| Binder | ELC/HC ratio (Coomassie band density, light chain over heavy chain) [1] | RLC/HC ratio (Coomassie band density, light chain over heavy chain) [2] |
| --- | --- | --- |
| B1 | 0.19 |  |
| B2 |  | 0.11 |
